Experimental data reported in the supplement of paper PMC7877785.
± gives the uncertainty stated by the source.

Assay: self-splicing fitness, log relative to wild type (ln ratio); higher = more splicing; Tetrahymena group I intron in knt gene, E. coli kanamycin selection, DiMSum; sequences stand for … in CUCUCU…GGAGGGAAAAGUUAUCAGGCAUGCACCUGGUAGCUAGUCUUUAAACCAAUAGAUUGCAUCGGUUUAAAAGGCAAGACCGUCAAAUUGCGGGAAAGGGGUCAACAGCCGUUCAGUACCAAGUCUCAGGGGAAACUUUGAGAUGGCCUUGCAAAGGGUAUGGUAAUAAGCUGACGGACAUGGUCCUAACCACGCAGCCAAGUCCUAAGUCAACAGAUCUUCUGUUGAUAUGGAUGCAGUUCACAGACUAAAUGUCGGUCGGGGAAGAUGUAUUCUUCUCAUAAGAUAUAGUCGGACCUCUCCUUAAUGGGAGCUAGCGGAUGAAGUGAUGCAACACUGGAGCCGCUGGGAACUAAUUUGUAUGCGAAAGUAUAUUGAUUAGUUUUGGAGUACUCGUGGUCG
Outline: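 Pooled colonies went to amplicon sequencing on an Illumina HiSeq 2500 after six replicate transformations. The plates were LB agar with 100 μg/mL carbenicillin, 50 μM IPTG and 0.2% rhamnose, with or without 25 μg/mL kanamycin, incubated overnight at 37°C or 30°C. The E. coli BL21(DE3) library had all eight P1ex-region intron nucleotides randomised, the intron placed in the knt kanamycin-resistance gene on pET-22b(+). DiMSum fitness is the error-weighted combination of replicate fold changes, kanamycin against none, normalised to wild type.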

Sequence: UAGGAGCAAUAUUACGCCGA
- self-splicing fitness (ln) (30 °C): -2.76 ± 0.21
- self-splicing fitness (ln) (37 °C): -0.577 ± 0.27

Sequence: UAGGAGCAAUAUUACGCGUU
- self-splicing fitness (ln) (30 °C): -4.38 ± 0.24
- self-splicing fitness (ln) (37 °C): -1.37 ± 0.14

Sequence: UAGGAGCAAUAUUACGCUAC
- self-splicing fitness (ln) (37 °C): 0.223 ± 0.43

Sequence: UAGGAGCAAUAUUACGCUUG
- self-splicing fitness (ln) (30 °C): -1.18 ± 0.32
- self-splicing fitness (ln) (37 °C): 0.65 ± 0.36

Sequence: UAGGAGCAAUAUUACGGCGC
- self-splicing fitness (ln) (30 °C): -1.76 ± 0.36
- self-splicing fitness (ln) (37 °C): -2.54 ± 0.41

Sequence: UAGGAGCAAUAUUACGGCGU
- self-splicing fitness (ln) (30 °C): -3.14 ± 0.24
- self-splicing fitness (ln) (37 °C): -1.43 ± 0.28

Sequence: UAGGAGCAAUAUUACGGGGU
- self-splicing fitness (ln) (30 °C): -3.84 ± 0.4
- self-splicing fitness (ln) (37 °C): -2.12 ± 0.35

Sequence: UAGGAGCAAUAUUACGGUCA
- self-splicing fitness (ln) (30 °C): -2.65 ± 0.47
- self-splicing fitness (ln) (37 °C): -2.19 ± 0.26

Sequence: UAGGAGCAAUAUUACGGUUU
- self-splicing fitness (ln) (30 °C): -3.54 ± 0.3
- self-splicing fitness (ln) (37 °C): -3.45 ± 0.39

Sequence: UAGGAGCAAUAUUACGUAGG
- self-splicing fitness (ln) (30 °C): -3.28 ± 0.2
- self-splicing fitness (ln) (37 °C): -1.15 ± 0.18

Sequence: UAGGAGCAAUAUUACGUCAA
- self-splicing fitness (ln) (37 °C): -2.27 ± 0.46

Sequence: UAGGAGCAAUAUUACGUCGA
- self-splicing fitness (ln) (30 °C): -3.16 ± 0.2
- self-splicing fitness (ln) (37 °C): -1.55 ± 0.21

Sequence: UAGGAGCAAUAUUACGUCUG
- self-splicing fitness (ln) (30 °C): -0.473 ± 0.13
- self-splicing fitness (ln) (37 °C): 0.629 ± 0.15

Sequence: UAGGAGCAAUAUUACGUGAA
- self-splicing fitness (ln) (30 °C): -1.66 ± 0.34
- self-splicing fitness (ln) (37 °C): -1.93 ± 0.34

Sequence: UAGGAGCAAUAUUACGUGAC
- self-splicing fitness (ln) (30 °C): -3 ± 0.23

Sequence: UAGGAGCAAUAUUACGUGGC
- self-splicing fitness (ln) (37 °C): -0.624 ± 0.36

Sequence: UAGGAGCAAUAUUACGUUGG
- self-splicing fitness (ln) (37 °C): -1.27 ± 0.28

Sequence: UAGUAGCAAUAUUACGAAUG
- self-splicing fitness (ln) (30 °C): -2.77 ± 0.16
- self-splicing fitness (ln) (37 °C): -0.412 ± 0.13

Sequence: UAGUAGCAAUAUUACGAGGU
- self-splicing fitness (ln) (30 °C): -2.28 ± 0.36

Sequence: UAGUAGCAAUAUUACGAUCU
- self-splicing fitness (ln) (30 °C): -1.22 ± 0.11
- self-splicing fitness (ln) (37 °C): -0.472 ± 0.13

Sequence: UAGUAGCAAUAUUACGCAUC
- self-splicing fitness (ln) (30 °C): -2.64 ± 0.28

Sequence: UAGUAGCAAUAUUACGCGAC
- self-splicing fitness (ln) (37 °C): -1.69 ± 0.29

Sequence: UAGUAGCAAUAUUACGCUCA
- self-splicing fitness (ln) (30 °C): -0.29 ± 0.13
- self-splicing fitness (ln) (37 °C): 0.69 ± 0.15

Sequence: UAGUAGCAAUAUUACGGAUU
- self-splicing fitness (ln) (30 °C): -4.06 ± 0.47
- self-splicing fitness (ln) (37 °C): -0.834 ± 0.18

Sequence: UAGUAGCAAUAUUACGGCCU
- self-splicing fitness (ln) (30 °C): -0.563 ± 0.15
- self-splicing fitness (ln) (37 °C): -0.218 ± 0.24

Sequence: UAGUAGCAAUAUUACGGGUA
- self-splicing fitness (ln) (30 °C): -1.99 ± 0.12
- self-splicing fitness (ln) (37 °C): -0.398 ± 0.097

Sequence: UAGUAGCAAUAUUACGGUAA
- self-splicing fitness (ln) (30 °C): -2.68 ± 0.3
- self-splicing fitness (ln) (37 °C): -2.18 ± 0.29

Sequence: UAGUAGCAAUAUUACGGUGC
- self-splicing fitness (ln) (30 °C): -3.13 ± 0.17
- self-splicing fitness (ln) (37 °C): -2.39 ± 0.19

Sequence: UAGUAGCAAUAUUACGGUGU
- self-splicing fitness (ln) (30 °C): -3.57 ± 0.32
- self-splicing fitness (ln) (37 °C): -3.21 ± 0.4

Sequence: UAGUAGCAAUAUUACGUAAG
- self-splicing fitness (ln) (30 °C): -4.17 ± 0.46
- self-splicing fitness (ln) (37 °C): -1.11 ± 0.23

Sequence: UAGUAGCAAUAUUACGUAGA
- self-splicing fitness (ln) (30 °C): -3.53 ± 0.24
- self-splicing fitness (ln) (37 °C): -1.93 ± 0.17

Sequence: UAUAAGCAAUAUUACGACUG
- self-splicing fitness (ln) (30 °C): 0.143 ± 0.076
- self-splicing fitness (ln) (37 °C): 0.22 ± 0.098

Sequence: UAUAAGCAAUAUUACGAGCG
- self-splicing fitness (ln) (30 °C): -0.0858 ± 0.098
- self-splicing fitness (ln) (37 °C): -0.062 ± 0.1

Sequence: UAUAAGCAAUAUUACGAGGA
- self-splicing fitness (ln) (30 °C): -2.44 ± 0.42

Sequence: UAUAAGCAAUAUUACGAUCC
- self-splicing fitness (ln) (37 °C): -2.05 ± 0.37

Sequence: UAUAAGCAAUAUUACGAUGG
- self-splicing fitness (ln) (30 °C): -1.62 ± 0.13
- self-splicing fitness (ln) (37 °C): -1.48 ± 0.2

Sequence: UAUAAGCAAUAUUACGCGAU
- self-splicing fitness (ln) (30 °C): -3.6 ± 0.21
- self-splicing fitness (ln) (37 °C): -3.37 ± 0.22

Sequence: UAUAAGCAAUAUUACGGACU
- self-splicing fitness (ln) (30 °C): -2.12 ± 0.11
- self-splicing fitness (ln) (37 °C): -0.796 ± 0.11

Sequence: UAUAAGCAAUAUUACGGAGA
- self-splicing fitness (ln) (30 °C): -3.11 ± 0.36
- self-splicing fitness (ln) (37 °C): -2.33 ± 0.46

Sequence: UAUAAGCAAUAUUACGGCCG
- self-splicing fitness (ln) (30 °C): 0.336 ± 0.23
- self-splicing fitness (ln) (37 °C): 0.0314 ± 0.26

Sequence: UAUAAGCAAUAUUACGGCUC
- self-splicing fitness (ln) (30 °C): -1.1 ± 0.17
- self-splicing fitness (ln) (37 °C): -0.161 ± 0.2

Sequence: UAUAAGCAAUAUUACGGCUG
- self-splicing fitness (ln) (30 °C): 0.381 ± 0.13
- self-splicing fitness (ln) (37 °C): 0.0603 ± 0.14
